Test results published in article PMC4568377.
Where “and” joins values, the source holds several entries; their conditions need not be identical. Identical values can stand only once.

How the values were obtained:
AKAP7γ-EGFP (human) = experiment: photon counting histogram analysis (fluorescence fluctuation); AKAP7γ-EGFP in live HEK-293 cells, cytoplasm; two-component global fit with brightness constrained to monomeric and tandem EGFP; apparent Kd, monomer to dimer; 75 measurements from 5 cells
[1] = target: His/S-tagged AKAP7γ (human); experiment: SPR; Biacore T100; AKAP7γ or AKAP7α amine-coupled to a CM5 chip (150 RU) in separate flow chambers; analytes AKAP7γ or AKAP7α 12.5–200 nM in HBS (10 mM Hepes pH 7.4, 150 mM NaCl, 0.005% Surfactant P20), 30 μL/min, 300 s; heterogeneous analyte model

Kd (AKAP7γ-EGFP (human))	percent of the particles detected that are dimer (AKAP7γ-EGFP (human)) [%]	percent of the protein in the dimeric form (AKAP7γ-EGFP (human)) [%]	stoichiometry N (AKAP7γ-EGFP (human))	KD, site 1 (heterogeneous analyte model) [1] [nM]	KD, site 2 (heterogeneous analyte model) [1] [nM]	Substance
78.8 to 126 nM and 98.4 nM	20	28.7	2			AKAP7γ-EGFP (natural protein)
				0.537	79.7	His/S-tagged AKAP7γ (natural protein)
